According to US20110088129A1:

Experiments:
[1] = target: binding sites in brush border membrane vesicles (BBMV) from midguts of last instar Helicoverpa zea larvae (Helicoverpa zea); test: homologous competition, 125I-Cry1Ac on H. zea BBMV, LIGAND program
[2] = target: binding sites in brush border membrane vesicles (BBMV) from midguts of last instar Helicoverpa armigera larvae (Helicoverpa armigera); test: homologous competition, 125I-Cry1Ac on H. armigera BBMV, LIGAND program
[3] = target: binding sites in brush border membrane vesicles (BBMV) from midguts of last instar Helicoverpa armigera larvae (Helicoverpa armigera); test: direct saturation assay, labeled Cry1Ac on BBMV at the same concentration as for Cry2Ab

Substance “Cry1Ac activated toxin (trypsin-activated Cry1Ac protoxin from B. thuringiensis strain HD73) (from UniProt P05068 29-623) (ligand)” has a Kd [1] of 0.17 nM, a Rt (binding site concentration) (pmol/mg BBMV protein) [1] of 10 and a Kd [2] of 0.08 nM. For the same substance, the Rt (binding site concentration) (pmol/mg BBMV protein) [2] was 0.96 and the fold less toxin needed for saturation than in the Cry2Ab assay [3] was 4 fold.
